# Numbering of substitutions follows the chain as printed.
# T1: human CTLA4 (soluble analyte of the Biacore assays of Examples 3-3, 4 and 5) (human, UniProt P16410 36-161)
# T1 construct: also called hCTLA4
# T1 sequence: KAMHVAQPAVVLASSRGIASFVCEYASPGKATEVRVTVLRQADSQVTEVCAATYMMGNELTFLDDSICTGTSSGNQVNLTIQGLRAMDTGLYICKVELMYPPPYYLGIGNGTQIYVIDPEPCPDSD
# B1: 04H1077-G1m/04L1034-lam1 (antibody, human IgG1, lambda, V domains shown)
# VH: EVQLVESGGDLVKPGGGLRLSCAASGFTFSSRTMNWVRQAPGKGLEWVSSISTRSGYIYYAESVKGRFTISRDNAKNSLYLQMNSLRAEDTAVYYCARYGKREDMLWVFDYWGQGTLVTVSS
# VL: QSALTQPPSASGSPGQTVTISCDGPSTDVGDYNWVSWYQQHPGKAPKLMIYFTSKKPSGVPDRFSGSKSGNTASLTVSGLQAEDEADYFCSTYAAPLGPMFGGGTKLTVLG
# B2: 04H1077-G1m/04L1041-lam1 (antibody, human IgG1, lambda, V domains shown)
# VH: B1 VH
# VL: B1 VL with W34Y, S36H
# B3: 04H1077-G1m/04L1067-lam1 (antibody, human IgG1, lambda, V domains shown)
# VH: B1 VH
# VL: B1 VL with D28G, W34Y, S36H
# B4: 04H1077-G1m/04L1086-lam1 (antibody, human IgG1, lambda, V domains shown)
# VH: B1 VH
# VL: B1 VL with D28G, W34Y, S36H, S91Q
# Target: T1, human CTLA4 (soluble analyte of the …)
# Test: SPR 37C, Ab on Protein G, 1000 nM CTLA4, no ATP; no ATP; binding amount at 1000 nM CTLA4
# Description: (§1) Biacore T200 was used to measure the binding of the generated antibodies to human CTLA4. 20 mM ACES (pH 7.4), 150 mM NaCl, 2 mM MgCl₂, 0.05% Tween 20 with ATP added to the desired concentration was used as the running buffer, and the assay was performed at 37° C. First, Protein G (CALBIOCHEM) was immobilized onto a Series S Sensor Chip CM3 (GE Healthcare), and the antibodies were captured by interacting an antibody solution prepared in an ATP-free running buffer with the chip. Next, by interacting with a human CTLA4 solution prepared in a running buffer containing ATP to the desired concentration, or a human CTLA4 solution prepared in a running buffer containing no ATP, the binding ability of the antibody to human CTLA4 in the presence or absence of ATP was evaluated. Chips were regenerated with 25 mM NaOH and 10 mM Glycine-HCl (pH 1.5), and assay was performed by repeatedly capturing antibodies. The dissociation constant of each antibody for CTLA4 was calculated using Biacore T200 Evaluation Software 2.0. Specifically, the binding rate constant ka (L/mol/s) and the dissociation rate constant kd (1/s) were calculated by global fitting of the sensorgrams obtained by the measurement, using a 1:1 Langmuir binding model. The dissociation constant KD (mol/L) was calculated from those values. Alternatively, the dissociation constant KD (mol/L) was calculated by the steady state model. In addition, the binding amount of CTLA4 per unit amount of antibody was calculated by correcting the amount of CTLA4 bound as calculated from the sensorgram obtained by the assay with the amount of antibody captured onto the chip surface.
# (§2) The KD values marked with an * in the table were calculated using the steady state model. It was shown that all the variants prepared using 04H0150-G1m/04L0072-lam1 as the parent antibody had enhanced binding in the presence of ATP as compared to 04H0150-G1m/04L0072-lam1.
row,Binding to Human CTLA4 (amount per unit antibody),Binder
1,0.004,B1
2,0.006,B2
3,0.012,B3
4,0.01,B4

# Target: T1, human CTLA4 (soluble analyte of the …)
# Test: SPR 37C, Ab on Protein G, 1000 nM CTLA4, ATP 1 uM; ATP 1 uM; binding amount at 1000 nM CTLA4
# Description: as §1, §2
row,Binding to Human CTLA4 (amount per unit antibody),Binder
1,0.007,B1
2,0.023,B2
3,0.041,B3
4,0.031,B4

# Target: T1, human CTLA4 (soluble analyte of the …)
# Test: SPR 37C, Ab on Protein G, 1000 nM CTLA4, ATP 10 uM; ATP 10 uM; binding amount at 1000 nM CTLA4
# Description: as §1, §2
row,Binding to Human CTLA4 (amount per unit antibody),Binder
1,0.041,B1
2,0.094,B2
3,0.131,B3
4,0.106,B4

# Target: T1, human CTLA4 (soluble analyte of the …)
# Test: SPR 37C, Ab on Protein G, 1000 nM CTLA4, ATP 100 uM; ATP 100 uM; binding amount at 1000 nM CTLA4
# Description: as §1, §2
row,Binding to Human CTLA4 (amount per unit antibody),Binder
1,0.114,B1
2,0.172,B2
3,0.192,B3
4,0.181,B4

# Reference: patent US20260092115A1 (Chugai, published 2026)
